# Measurements from IntAct's records for PubMed 17377532.
# B1: Forkhead box protein P3 (Mus musculus), Q99JB6 (parent)
# chain: MPNPRPAKPMAPSLALGPSPGVLPSWKTAPKGSELLGTRGSGGPFQGRDLRSGAHTSSSLNPLPPSQLQLPTVPLVMVAPSGARLGPSPHLQALLQDRPHFMHQLSTVDAHAQTPVLQVRPLDNPAMISLPPPSAATGVFSLKARPGLPPGINVASLEWVSREPALLCTFPRSGTPRKDSNLLAAPQGSYPLLANGVCKWPGCEKVFEEPEEFLKHCQADHLLDEKGKAQCLLQREVVQSLEQQLELEKEKLGAMQAHLAGKMALAKAPSVASMDKSSCCIVATSTQGSVLPAWSAPREAPDGGLFAVRRHLWGSHGNSSFPEFFHNMDYFKYHNMRPPFTYATLIRWAILEAPERQRTLNEIYHWFTRMFAYFRNHPATWKNAIRHNLSLHKCFVRVESEKGAVWTVDEFEFRKKRSQRPNKCSNPCP
# Variants of: B1
# Conditions: with runx1_mouse Runx1, Q03347
# Sequence of runx1_mouse Runx1, Q03347 (Q03347 whole entry): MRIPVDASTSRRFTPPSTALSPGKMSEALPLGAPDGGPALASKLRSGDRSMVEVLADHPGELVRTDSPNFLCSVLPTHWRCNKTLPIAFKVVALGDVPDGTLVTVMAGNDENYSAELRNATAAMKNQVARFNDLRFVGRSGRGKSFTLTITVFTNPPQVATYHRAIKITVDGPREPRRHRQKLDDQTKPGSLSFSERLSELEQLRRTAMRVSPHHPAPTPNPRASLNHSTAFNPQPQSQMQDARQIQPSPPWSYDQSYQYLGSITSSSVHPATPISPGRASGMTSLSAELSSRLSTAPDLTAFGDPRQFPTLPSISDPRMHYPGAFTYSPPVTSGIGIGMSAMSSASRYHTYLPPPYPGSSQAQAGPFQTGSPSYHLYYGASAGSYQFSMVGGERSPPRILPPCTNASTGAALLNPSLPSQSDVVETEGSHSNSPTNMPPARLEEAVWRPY
row,Variant,effect of a mutation on the interaction
1,D329V;Y330H;K332L,disrupting interaction strength
2,D329V;Y330H,decreasing interaction strength
